PMC5887453 (Nucleic Acids Research, 2018)

Tests used:
Test in all cases: native gel or EMSA
[1] = biological target: T1, PhoEF-2 M168S (Pyrococcus horikoshii, UniProt O59521 1-732, M168S)
T1 sequence (looked up): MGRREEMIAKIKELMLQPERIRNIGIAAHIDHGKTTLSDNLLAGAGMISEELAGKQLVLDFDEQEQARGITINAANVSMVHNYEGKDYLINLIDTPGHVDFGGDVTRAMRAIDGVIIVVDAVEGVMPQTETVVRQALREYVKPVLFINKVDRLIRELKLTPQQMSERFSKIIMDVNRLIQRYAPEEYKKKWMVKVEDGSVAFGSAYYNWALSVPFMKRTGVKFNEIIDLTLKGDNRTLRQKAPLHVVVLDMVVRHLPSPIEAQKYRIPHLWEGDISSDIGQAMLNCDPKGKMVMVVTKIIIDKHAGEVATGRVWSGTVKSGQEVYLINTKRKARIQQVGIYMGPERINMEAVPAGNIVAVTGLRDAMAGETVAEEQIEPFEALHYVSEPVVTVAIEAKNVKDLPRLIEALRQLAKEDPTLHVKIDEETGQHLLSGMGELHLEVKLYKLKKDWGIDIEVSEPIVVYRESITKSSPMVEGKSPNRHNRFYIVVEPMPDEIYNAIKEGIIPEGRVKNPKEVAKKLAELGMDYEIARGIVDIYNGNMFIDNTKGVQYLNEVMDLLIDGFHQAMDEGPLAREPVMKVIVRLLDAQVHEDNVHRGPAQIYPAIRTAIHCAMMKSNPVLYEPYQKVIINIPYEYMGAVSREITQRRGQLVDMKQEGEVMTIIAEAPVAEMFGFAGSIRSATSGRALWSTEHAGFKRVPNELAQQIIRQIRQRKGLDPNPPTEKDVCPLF

[2] = biological target: T2, PhoEF-2 F171S (Pyrococcus horikoshii, UniProt O59521 1-732, F171S)
T2 sequence (looked up): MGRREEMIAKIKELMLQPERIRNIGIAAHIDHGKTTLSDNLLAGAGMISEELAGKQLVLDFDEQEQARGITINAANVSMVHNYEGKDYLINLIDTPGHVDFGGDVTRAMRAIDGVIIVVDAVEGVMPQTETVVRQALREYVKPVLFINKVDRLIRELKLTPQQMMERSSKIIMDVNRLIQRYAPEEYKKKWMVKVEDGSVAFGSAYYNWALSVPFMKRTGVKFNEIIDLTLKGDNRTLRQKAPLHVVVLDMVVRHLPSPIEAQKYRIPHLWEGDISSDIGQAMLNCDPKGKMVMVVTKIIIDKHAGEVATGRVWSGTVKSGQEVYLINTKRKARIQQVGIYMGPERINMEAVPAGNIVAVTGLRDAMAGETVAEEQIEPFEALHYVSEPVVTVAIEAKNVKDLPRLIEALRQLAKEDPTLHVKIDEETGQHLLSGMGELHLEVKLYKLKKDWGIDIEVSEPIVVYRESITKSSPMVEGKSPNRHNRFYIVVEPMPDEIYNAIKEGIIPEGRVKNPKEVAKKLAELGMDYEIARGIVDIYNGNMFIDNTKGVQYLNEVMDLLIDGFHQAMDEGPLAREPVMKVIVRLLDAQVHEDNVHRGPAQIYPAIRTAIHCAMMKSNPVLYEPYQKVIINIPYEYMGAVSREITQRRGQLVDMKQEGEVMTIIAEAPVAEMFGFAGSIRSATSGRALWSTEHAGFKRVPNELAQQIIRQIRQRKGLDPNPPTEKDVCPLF

[3] = biological target: T3, PhoEF-2 L214S/V216S (Pyrococcus horikoshii, UniProt O59521 1-732, L214S | V216S)
T3 sequence (looked up): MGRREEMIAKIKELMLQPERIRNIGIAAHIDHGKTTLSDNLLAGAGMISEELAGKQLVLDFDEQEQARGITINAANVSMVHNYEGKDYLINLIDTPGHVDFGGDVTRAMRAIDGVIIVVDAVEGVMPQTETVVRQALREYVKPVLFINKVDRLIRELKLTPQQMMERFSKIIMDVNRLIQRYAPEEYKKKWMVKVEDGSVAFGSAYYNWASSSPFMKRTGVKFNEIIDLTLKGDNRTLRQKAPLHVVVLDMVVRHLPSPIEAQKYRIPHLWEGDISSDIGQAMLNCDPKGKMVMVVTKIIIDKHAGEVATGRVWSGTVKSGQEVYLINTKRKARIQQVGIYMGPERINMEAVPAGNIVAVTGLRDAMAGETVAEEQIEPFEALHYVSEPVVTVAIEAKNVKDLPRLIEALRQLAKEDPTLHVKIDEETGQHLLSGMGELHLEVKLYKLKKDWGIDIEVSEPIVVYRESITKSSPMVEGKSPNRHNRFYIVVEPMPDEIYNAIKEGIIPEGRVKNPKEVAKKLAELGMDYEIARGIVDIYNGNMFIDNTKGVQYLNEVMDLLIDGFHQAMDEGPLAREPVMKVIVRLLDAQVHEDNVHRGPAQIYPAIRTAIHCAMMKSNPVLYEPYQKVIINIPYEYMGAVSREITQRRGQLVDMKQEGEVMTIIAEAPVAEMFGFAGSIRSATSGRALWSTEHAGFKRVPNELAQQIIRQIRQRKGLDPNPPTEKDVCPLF

binding result [1]: binds
binding result [2]: binds
binding result [3]: binds
B1: Pyrococcus horikoshii ribosomal stalk protein P1 (natural protein, UniProt O57705 1-108, looked up)
chain: MEYVYAALLLHSVGKEINEENLKAVLQAAGVEPEEARIKALVAALEGVNIDEVIEKAAMPVAVAAAPAAAPAEAGGEEKKEEEKKEEEEKEEEVSEEEALAGLSALFG
modifications: in the SPR only: biotin on amino groups via a PEG linker (EZ-Link NHS-PEG4-Biotin)
